Several values for one entry are separate records, joined by “and”; a condition that tells them apart may be missing. Equal values may be shown once.
Columns and labels:
[1] = test system: colorectal and pancreatic cancer biopsies; assay: IHC staining of patient tumor biopsies with NEO-101; type: binding, human; settings: colorectal and pancreatic biopsies together
Procedure: Patients enrolled on the clinical diagnostic study agreed to provide their tumor biopsy or surgical specimen to be stained immunohistochemically with NEO-101. Tumor sections were prepared as slides, and two additional slides were prepared for negative control (human IgG1) and positive control (cytokeratin) staining to ensure quality controls for the IHC method. More specifically, tumor biopsy specimens from colorectal and pancreas cancer patients were deparaffinized at about 60° C. for 30 min prior to staining with NEO-101. Subsequently, all staining steps were carried out at about 25° C. Slides (4 μm) were blocked with Peroxo-Bloc® inhibitor (Zymed Laboratories) for about 2 min, rinsed with phosphate-buffered saline (PBS), and blocked with CAS (Zymed) for an additional about 10 minutes. Slides were stained with about 10 μg/mL of biotin-labeled NEO-101 for 1 hour, and washed three times with PBS containing 0.05% Tween®-20 non-ionic detergent. […]
All antibodies were biotinylated prior to use and tested independently at various concentrations using human tumor tissues known to react with the antibodies. Primary antibody (NEO-101) was used at about 10 μg/mL, detected with streptavidin-horseradish peroxidase conjugate, and mounted on slides. A positive staining scale ranging from +1 to +5 was applied to the staining results, measured by light microscopy. […]

LS174T colorectal tumor = LS174T colorectal tumor xenograft model; type: in vivo, nude mice; settings: same treatment regimen; last day P=0.0145
Procedure: Since the LS174T colorectal tumor cell line served as a good target in vitro in the ADCC assay, this cell line was used in a xenograft tumor model. The LS174T cells were implanted subcutaneously in nude mice and the same treatment regimen was administered to these mice. […] Nonetheless, we observed a 2-3-fold reduction in tumor growth in NEO-101 treated mice compared to the 2 control groups of mice following the treatment cycles. The anti-tumor effect upon treatment with NEO-101 was significant on the last day of measuring tumors with P=0.0145 by one-way ANOVA. However, many of the tumors in the control groups became ulcerated and were greater than 1000 mm^3 and the study was terminated.

B1: NEO-101: Chimeric NEO-101 antibody, engineered in CHO-DG44 production cell clone 4B7; targets a variant of MUC5AC (protein)
light: QVVLTQSPVIMSASPGEKVTMTCSASSSISYMYWYQQKPGTSPKRWIYDTSKLASGVPARFSGSGSGTSYSLTISNMEAGDAATYYCHQRDSYPWTFGGGTNLEIK
heavy: QVQLKESGPDLVAPSQSLSITCTVSGFSLSKFGVNWVRQPPGKGLEWLGVIWGDGSTSYNSGLISRLSISKENSKSQVFLKLNSLQADDTATYYCVKPGGDYWGHGTSVTVSS
With B1 the “patient tumor samples considered positive (+1 to +5)” value [1] was 79%, the “patient tumor samples considered positive, samples/total” value [1] was 30 of 38 and 30/38 and the “reduction in tumor growth compared to the 2 control groups” value (LS174T colorectal tumor) was 2-3 fold.
